Source: article PMC11255114
Blank lines part the entries; values can stand above or below the substance they belong to.

Assays:
[1] = biological target: Anti-TRAP (AT), mature deformylated form, trimer AT3 (assembly unit) (UniProt O31466+O31466); experiment: Sedimentation velocity analytical ultracentrifugation (interference optics, 50,000 rpm); settings: pH 8; 25 °C; 100 mM NaCl plus 50 mM sodium phosphate; 50 mM sodium phosphate at pH 7, 7.25, 7.5 and 8 (Fig. 4 caption also lists pH 7.75)
[2] = biological target: Bacillus subtilis Anti-TRAP protein (AT), mature (deformylated) (Bacillus subtilis); experiment: AUC; sedimentation velocity, interference optics, 25 °C, 50,000 rpm; 50 mM sodium phosphate, 100 mM NaCl, 0.5 mM tryptophan, 0.02 % NaN3, pH 7 to 8; 65-500 µM AT monomer; global fit in SEDPHAT to a three-state model, 4 AT3 to 2 AT6 to AT12; apparent rate constants, KD from their ratio
[3] = biological target: N-formylmethionine Anti-TRAP (fAT), trimer fAT3 none (N-terminal formylation of Met1) (UniProt O31466); experiment: Small-angle X-ray scattering (SIBYLS beamline, ALS); settings: pH 8, 100 mM NaCl, 50 mM sodium-phosphate
[4] = biological target: N-terminal formylmethionine Anti-TRAP (fAT) of Bacillus subtilis (Bacillus subtilis); experiment: NMR solution structure; fAT3, data at 55 °C; NOEs, torsion angles, RDCs, three-fold symmetry and SAXS restraints; homo-trimer
[5] = biological target: N-terminal formylmethionine Anti-TRAP (fAT) of Bacillus subtilis (Bacillus subtilis); experiment: SAXS; fAT at 1, 2, 3.3, 5 and 10 mg/mL in 50 mM sodium phosphate pH 8, 100 mM NaCl, 200 µM ZnCl2, 1 mM TCEP; SIBYLS beamline; deconvolution into trimer and dodecamer
[6] = biological target: N-terminal formylmethionine Anti-TRAP (fAT) of Bacillus subtilis (Bacillus subtilis); experiment: NMR spectra (1H-15N HSQC); 3 mM fAT in 20 mM d11-Tris pH 7.5, 20 mM β-mercaptoethanol, 1 mM ZnCl2; also a pH series 6.5 to 8.0 at 25 °C; step looked at for non-binding: trimers to dodecamer

equilibrium (dissociation) constant, step 2 (2 AT6 <-> AT12) [1]: 0.05 to 50 µM (upper end of range)
Substance: Anti-TRAP (AT), mature deformylated form, trimer AT3 (assembly unit)

KD of the first step (two AT3 to AT6) [2]: 20 to 90 µM
stoichiometry N [2]: 6
Substance: Bacillus subtilis Anti-TRAP protein (AT), mature (deformylated) (natural protein)

fraction of dodecamer in fAT by SAXS deconvolution [3]: <3% at 10 mg/mL
Substance: N-formylmethionine Anti-TRAP (fAT), trimer fAT3 none (N-terminal formylation of Met1)

percent dodecamer [5]: < 3%
stoichiometry N [6]: 3
Substance: N-terminal formylmethionine Anti-TRAP (fAT) of Bacillus subtilis (natural protein)
stoichiometry N [4]: 3
